Values belong to the molecule of their own block, whether it stands above or below them.
What was measured:
[1] = system: CTCF WT;SA1 (human;human?); experiment: single-molecule DNA curtains (TIRF); details: preincubated 10 nM CTCF, 100 nM SA1; 300 mM NaCl wash; DNA curtains: CTCF 10 nM (ZF9-CT 50 nM, ZF4-7 200 nM) or SA 100 nM; load at 50 mM NaCl, wash at 300 mM NaCl; buffer, pH and temperature not given in material
[2] = system: CTCF WT (human); experiment: single-molecule DNA curtains (TIRF); details: 300 mM NaCl wash; DNA curtains: CTCF 10 nM (ZF9-CT 50 nM, ZF4-7 200 nM) or SA 100 nM; load at 50 mM NaCl, wash at 300 mM NaCl; buffer, pH and temperature not given in material
[3] = system: CTCF WT;SA2 (human;human?); experiment: single-molecule DNA curtains (TIRF); details: preincubated 10 nM CTCF, 100 nM SA2; 300 mM NaCl wash; DNA curtains: CTCF 10 nM (ZF9-CT 50 nM, ZF4-7 200 nM) or SA 100 nM; load at 50 mM NaCl, wash at 300 mM NaCl; buffer, pH and temperature not given in material
[4] = system: CTCF ΔRBR (ΔRBR+ΔZF1,10,11) (human); experiment: single-molecule DNA curtains lifetime; details: 300 mM NaCl wash; CBS enrichment similar to WT; DNA curtains: CTCF 10 nM (ZF9-CT 50 nM, ZF4-7 200 nM) or SA 100 nM; load at 50 mM NaCl, wash at 300 mM NaCl; buffer, pH and temperature not given in material
[5] = system: CTCF WT (human); experiment: single-molecule DNA curtains lifetime; details: DNA curtains: CTCF 10 nM (ZF9-CT 50 nM, ZF4-7 200 nM) or SA 100 nM, load at 50 mM NaCl, wash at 300 mM NaCl, buffer, pH and temperature not given in material; for binding signal (min (lifetime)): 300 mM NaCl wash, photobleaching corrected
[6] = system: T1, CTCF ZF4-7 del1-350;del461-727 (human); experiment: single-molecule DNA curtains lifetime; details: not enriched on CBSs; DNA curtains: CTCF 10 nM (ZF9-CT 50 nM, ZF4-7 200 nM) or SA 100 nM; load at 50 mM NaCl, wash at 300 mM NaCl; buffer, pH and temperature not given in material
T1 sequence: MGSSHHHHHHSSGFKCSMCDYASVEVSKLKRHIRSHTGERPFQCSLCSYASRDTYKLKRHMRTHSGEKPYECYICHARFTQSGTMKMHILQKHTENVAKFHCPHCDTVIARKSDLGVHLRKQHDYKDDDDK

[7] = system: T2, CTCF ZF9-CT (human); experiment: single-molecule DNA curtains lifetime; details: not enriched on CBSs (negative enrichment); prefers AT-rich DNA; DNA curtains: CTCF 10 nM (ZF9-CT 50 nM, ZF4-7 200 nM) or SA 100 nM; load at 50 mM NaCl, wash at 300 mM NaCl; buffer, pH and temperature not given in material
T2 sequence: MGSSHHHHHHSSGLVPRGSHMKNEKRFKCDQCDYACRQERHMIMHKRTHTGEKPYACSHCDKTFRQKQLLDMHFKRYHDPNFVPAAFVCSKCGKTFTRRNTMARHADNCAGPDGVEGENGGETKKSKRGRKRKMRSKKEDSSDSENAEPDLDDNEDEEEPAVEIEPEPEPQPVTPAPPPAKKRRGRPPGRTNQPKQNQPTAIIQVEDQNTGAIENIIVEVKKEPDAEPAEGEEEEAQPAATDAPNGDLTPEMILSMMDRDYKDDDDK

[8] = target: CTCF WT (human CCCTC-binding factor, full-length) (human) (UniProt P49711); experiment: single-molecule photobleaching step counting on DNA curtains; labeled CTCF on λ-DNA at 50 mM NaCl without prior removal of unspecifically bound CTCF, 25 ng/μl 100 bp Cy3-RNA added; bleaching steps counted at positions of captured RNA; both lasers at 140 mW
[9] = target: CTCF ΔNC (truncation mutant missing both CTCF termini, containing all 11 ZFs) (human); experiment: as above
[10] = target: T3, CTCF WT (human CCCTC-binding factor, full-length) (human, UniProt P49711 1-727, fluorescent dye (AF568, Atto 643 or Alexa Fluor 660) on the Halo-tag through a chloroalkane linker; unlabeled in the SA transcription experiments); experiment: single-molecule DNA curtains (TIRF microscopy), combined loading; 100 or 400 nM SA-LD655 preincubated with 10 nM CTCF in CTCF 100 buffer (40 mM Tris pH 7.5, 100 mM NaCl, 1 mM MgCl2, 1 mg/ml BSA, 1 mM DTT) 5 min at RT; 30 s on λ-DNA with 4× CBSs in 50 mM NaCl, then 3 min (lifetimes: up to 15 min) in 300 mM NaCl; SA read at CBS-bound CTCF (enrichment, lifetime); details: both partners purified
T3 construct: 11 zinc fingers and two unstructured termini; also called AF-568-CTCF-WT; AF568-CTCF; source: High Five (Hi5) insect cells, purified (Ni-NTA, heparin, Superose 6); not shown: Halo, N-terminal, kept
T3 sequence (looked up): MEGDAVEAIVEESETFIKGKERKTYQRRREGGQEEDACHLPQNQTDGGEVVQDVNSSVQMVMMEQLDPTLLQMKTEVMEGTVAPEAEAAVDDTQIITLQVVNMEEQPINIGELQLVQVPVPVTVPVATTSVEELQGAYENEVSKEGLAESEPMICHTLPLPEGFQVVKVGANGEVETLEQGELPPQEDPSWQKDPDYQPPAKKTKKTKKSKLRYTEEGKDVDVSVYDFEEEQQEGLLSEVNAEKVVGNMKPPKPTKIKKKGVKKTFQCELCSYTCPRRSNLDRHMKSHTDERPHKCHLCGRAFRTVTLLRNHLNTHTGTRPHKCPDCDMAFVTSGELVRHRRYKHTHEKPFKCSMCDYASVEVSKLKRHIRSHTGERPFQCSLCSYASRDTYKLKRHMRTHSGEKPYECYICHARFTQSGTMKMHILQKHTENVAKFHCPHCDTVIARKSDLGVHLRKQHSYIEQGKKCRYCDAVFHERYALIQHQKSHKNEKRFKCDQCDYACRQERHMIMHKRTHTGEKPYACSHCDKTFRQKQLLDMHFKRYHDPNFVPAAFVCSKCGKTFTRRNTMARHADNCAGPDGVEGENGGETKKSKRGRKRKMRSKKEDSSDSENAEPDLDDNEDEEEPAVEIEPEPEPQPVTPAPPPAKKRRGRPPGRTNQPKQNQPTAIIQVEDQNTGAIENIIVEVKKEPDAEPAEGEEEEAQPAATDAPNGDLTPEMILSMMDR

Molecule: 2xT7-4xCBSs λ-DNA
binding signal (fold SA1 enrichment on CBS) [1]: 10
binding signal (fold enrichment on CBS) [2]: 16
binding signal (fold SA2 enrichment on CBS) [3]: 8
binding signal (fold reduced lifetime vs WT) [4]: 2.5
binding signal (min (lifetime)) [5]: 50
binding signal (fold reduced lifetime vs WT) [6]: 90
binding signal (fold reduced lifetime vs WT) [7]: 25

Molecule: λ-DNA (non-CBS)
binding signal (fold lower lifetime than on CBS) ([5]; coats DNA at 50 mM NaCl, mostly washed off at 300 mM): > 40

Molecule: 1xT7-1xCBS λ-DNA
binding signal (fold enrichment on CBS) [2]: 7
binding signal (min (lifetime)) [5]: 50

photobleaching steps in CTCF-RNA clusters [8]: 8.8 steps
stoichiometry N (CTCF molecules) [8]: 17
Molecule: CTCF WT (human CCCTC-binding factor, full-length) (from UniProt P49711 1-727) (natural protein)

photobleaching steps in clusters on DNA (bleaching steps) [9]: 9
Molecule: CTCF ΔNC (truncation mutant missing both CTCF termini, containing all 11 ZFs) (domain or fragment)

fold enrichment on the CBSs with CTCF [10]: 10 fold
B1: Cohesin subunit SA1 (natural protein, UniProt Q8WVM7 1-1258, looked up)
chain: MITSELPVLQDSTNETTAHSDAGSELEETEVKGKRKRGRPGRPPSTNKKPRKSPGEKSRIEAGIRGAGRGRANGHPQQNGEGEPVTLFEVVKLGKSAMQSVVDDWIESYKQDRDIALLDLINFFIQCSGCRGTVRIEMFRNMQNAEIIRKMTEEFDEDSGDYPLTMPGPQWKKFRSNFCEFIGVLIRQCQYSIIYDEYMMDTVISLLTGLSDSQVRAFRHTSTLAAMKLMTALVNVALNLSIHQDNTQRQYEAERNKMIGKRANERLELLLQKRKELQENQDEIENMMNSIFKGIFVHRYRDAIAEIRAICIEEIGVWMKMYSDAFLNDSYLKYVGWTLHDRQGEVRLKCLKALQSLYTNRELFPKLELFTNRFKDRIVSMTLDKEYDVAVEAIRLVTLILHGSEEALSNEDCENVYHLVYSAHRPVAVAAGEFLHKKLFSRHDPQAEEALAKRRGRNSPNGNLIRMLVLFFLESELHEHAAYLVDSLWESSQELLKDWECMTELLLEEPVQGEEAMSDRQESALIELMVCTIRQAAEAHPPVGRGTGKRVLTAKERKTQIDDRNKLTEHFIITLPMLLSKYSADAEKVANLLQIPQYFDLEIYSTGRMEKHLDALLKQIKFVVEKHVESDVLEACSKTYSILCSEEYTIQNRVDIARSQLIDEFVDRFNHSVEDLLQEGEEADDDDIYNVLSTLKRLTSFHNAHDLTKWDLFGNCYRLLKTGIEHGAMPEQIVVQALQCSHYSILWQLVKITDGSPSKEDLLVLRKTVKSFLAVCQQCLSNVNTPVKEQAFMLLCDLLMIFSHQLMTGGREGLQPLVFNPDTGLQSELLSFVMDHVFIDQDEENQSMEGDEEDEANKIEALHKRRNLLAAFSKLIIYDIVDMHAAADIFKHYMKYYNDYGDIIKETLSKTRQIDKIQCAKTLILSLQQLFNELVQEQGPNLDRTSAHVSGIKELARRFALTFGLDQIKTREAVATLHKDGIEFAFKYQNQKGQEYPPPNLAFLEVLSEFSSKLLRQDKKTVHSYLEKFLTEQMMERREDVWLPLISYRNSLVTGGEDDRMSVNSGSSSSKTSSVRNKKGRPPLHKKRVEDESLDNTWLNRTDTMIQTPGPLPAPQLTSTVLRENSRPMGDQIQEPESEHGSEPDFLHNPQMQISWLGQPKLEDLNRKDRTGMNYMKVRTGVRHAVRGLMEEDAEPIFEDVMMSSRSQLEDMNEEFEDTMVIDLPPSRNRRERAELRPDFFDSAAIIEDDSGFGMPMF
modifications: LD655-CoA dye on the ybbR-tag (Sfp labeling)
notes: cohesin subunit SA1; also called SA-LD655; source: High Five (Hi5) insect cells, purified (Ni-NTA, heparin, Superose 6); not shown: ybbR, C-terminal, kept

fold enrichment on the CBSs with CTCF [10]: 8 fold
B2: Cohesin subunit SA2 (natural protein, UniProt Q8N3U4 1-1231, looked up)
chain: MIAAPEIPTDFNLLQESETHFSSDTDFEDIEGKNQKQGKGKTCKKGKKGPAEKGKGGNGGGKPPSGPNRMNGHHQQNGVENMMLFEVVKMGKSAMQSVVDDWIESYKHDRDIALLDLINFFIQCSGCKGVVTAEMFRHMQNSEIIRKMTEEFDEDSGDYPLTMAGPQWKKFKSSFCEFIGVLVRQCQYSIIYDEYMMDTVISLLTGLSDSQVRAFRHTSTLAAMKLMTALVNVALNLSINMDNTQRQYEAERNKMIGKRANERLELLLQKRKELQENQDEIENMMNAIFKGVFVHRYRDAIAEIRAICIEEIGIWMKMYSDAFLNDSYLKYVGWTMHDKQGEVRLKCLTALQGLYYNKELNSKLELFTSRFKDRIVSMTLDKEYDVAVQAIKLLTLVLQSSEEVLTAEDCENVYHLVYSAHRPVAVAAGEFLYKKLFSRRDPEEDGMMKRRGRQGPNANLVKTLVFFFLESELHEHAAYLVDSMWDCATELLKDWECMNSLLLEEPLSGEEALTDRQESALIEIMLCTIRQAAECHPPVGRGTGKRVLTAKEKKTQLDDRTKITELFAVALPQLLAKYSVDAEKVTNLLQLPQYFDLEIYTTGRLEKHLDALLRQIRNIVEKHTDTDVLEACSKTYHALCNEEFTIFNRVDISRSQLIDELADKFNRLLEDFLQEGEEPDEDDAYQVLSTLKRITAFHNAHDLSKWDLFACNYKLLKTGIENGDMPEQIVIHALQCTHYVILWQLAKITESSSTKEDLLRLKKQMRVFCQICQHYLTNVNTTVKEQAFTILCDILMIFSHQIMSGGRDMLEPLVYTPDSSLQSELLSFILDHVFIEQDDDNNSADGQQEDEASKIEALHKRRNLLAAFCKLIVYTVVEMNTAADIFKQYMKYYNDYGDIIKETMSKTRQIDKIQCAKTLILSLQQLFNEMIQENGYNFDRSSSTFSGIKELARRFALTFGLDQLKTREAIAMLHKDGIEFAFKEPNPQGESHPPLNLAFLDILSEFSSKLLRQDKRTVYVYLEKFMTFQMSLRREDVWLPLMSYRNSLLAGGDDDTMSVISGISSRGSTVRSKKSKPSTGKRKVVEGMQLSLTEESSSSDSMWLSREQTLHTPVMMQTPQLTSTIMREPKRLRPEDSFMSVYPMQTEHHQTPLDYNRRGTSLMEDDEEPIVEDVMMSSEGRIEDLNEGMDFDTMDIDLPPSKNRRERTELKPDFFDPASIMDESVLGVSMF
modifications: LD655-CoA dye on the ybbR-tag (Sfp labeling)
notes: cohesin subunit SA2; also called SA-LD655; source: High Five (Hi5) insect cells, purified (Ni-NTA, heparin, Superose 6); not shown: ybbR, C-terminal, kept

Reference: publication PMC11194110, “Single-molecule imaging reveals a direct role of CTCF’s zinc fingers in SA interaction and cluster-dependent RNA recruitment” (Nucleic Acids Research, 2024)
